Test results as given in the supplement of paper PMC9170038.

Tested on: MS2 coat protein
Assay: apparent KD of MS2 coat protein; designed switch direction (-1 OFF switch, 1 ON switch): -1; higher = weaker reporter binding
Outline: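 Apparent KD, taken as the median over clusters for each design, was obtained by curve-fitting normalised cluster fluorescence. Designed RNA switches had been transcribed on Illumina chips by stalled E. coli RNA polymerase and titrated with SNAP-549-labelled MS2 coat protein, doubling from 0.7 or 1.5 nM to 3 µM.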

[1] = Eterna round: R95, input ligand: FMN 200 uM
[2] = Eterna round: R95, input ligand: microRNA oligo, concentration not stated
[3] = Eterna round: R95, input ligand: none
[4] = input ligand: microRNA oligo, concentration not stated

Sequence | apparent KD of MS2 coat protein [1] [nM] | apparent KD of MS2 coat protein [2] [nM] | apparent KD of MS2 coat protein [3] [nM] | apparent KD of MS2 coat protein (input ligand: FMN 200 uM) [nM] | apparent KD of MS2 coat protein [4] [nM] | apparent KD of MS2 coat protein (input ligand: none) [nM]
UUUAAUUUUUUUUUUUUACAAGCUUUUUGCUCGUCUUAUACAUGAGGAUCACCCAUGUGGGUGAGGGAUAAAUUAUC [JMF 42] (puzzle: Sensor v3, turn-off variant 2) | 16.3 | 27.2 | 574 | – | – | –
AAACAAGCUCGGGUGAGGGAGACCACAGAAGGACCCAAAACAUGAGGAUCACCCAUGUCAAGAGUAGAGCUUGGCAU [high scoring solution 31] (Eterna round: R96, puzzle: Sensor v2, turn-off variant 2) | – | – | – | 71 | 57.4 | 75.4
GACAGGGCAGGAUAUCGAGAUCCGCACAUGAGGAUCACCCAUGUUCAGUCGAAAGACUGACGAGAAGGGCCGUGUC [Omei Ex5 E4] (Eterna round: R97, puzzle: Exclusion 5) | – | – | – | 1190 | – | 1390
UUUGUUUAUGUAGGAUAUGCCUGGCGUGCCUUCGCAGAAGGACAUGAGGAUCACCCAUGUAUUGCGGUCUGCGUUCAGAUCGCA [salish99_ExNG1_r4_031] (Eterna round: R96, puzzle: Exclusion NG 1) | – | – | – | 72.6 | 30 | 42.5
CCUCUGUAAGGAUAUACGGAGACCACUGGAAUCAGUGGAAAGUAGAAGGUACAUGAGGAUCACCCAUGUGAGAA [Laveatisce] (Eterna round: R96, puzzle: Exclusion 4) | – | – | – | – | 67.9 | –
CACGAAUUGUGAGGAUAUGUGCGACAAAGUUGCACAGAAGGCACAUGAGGAUCACCCAUGUAAGCUAGGUCGAAAGACCUAGCG [Omei Exc(NG)1 Av1] (Eterna round: R96, puzzle: Exclusion NG 1) | – | – | – | 215 | 22.7 | 56.4
GAAGAUCGAGUUAGGAUAUGAUUACUAUCCGAAAAUCAGAAGGAACUUGAGGAUCACCCAAGUAAAGAAGAAAU [JR_BMEx4_Sub051] (Eterna round: R97, puzzle: Brourd's mod of Exclusion 4) | – | – | – | 22.9 | – | 16.5
AGACAGUCAGGAUAUACAUGAGGAUCACCCAUGUUGAGAUGUGAAAGGGCGGGAGUAGGUAGAAGGGACGAGAG [JR_Exclu3_Sub039] (puzzle: Exclusion 3) | 27.3 | 26.7 | 37.5 | – | – | –
CCUCGUUGGGAGGAUAUCCUUUAGAUUGGAGGAGGAGAAGGCUCGACAUGAGGAUCACCCAUGUAAAAUUUAAA [-18.7, -17.5 kcal, A 31%] (Eterna round: R97, puzzle: Exclusion 6) | – | – | – | 274 | – | 73.3
CAUACAGUAGUCAGGAUAUUGGAAGAGACACGGAACGAGAAGGGACAUGAGGAUCACCCAUGUAUACUGUAAAG [EX-4 Malc #4] (Eterna round: R96, puzzle: Brourd's mod of Exclusion 4) | – | – | – | 22.3 | 25.5 | 29.9
GUCCGGCAUGUAGGAUAUGGAUCCGAUUAGGAUUUAGAAGGACAUGAGGAUCACCCAUGUACAUUUAAUUAGUCAUUACCGGAC [EXclNG1-LROPPY03] (Eterna round: R96, puzzle: Exclusion NG 1) | – | – | – | 14.6 | 9.47 | 14.9
AAAUAAAGCCUAGGAUAUCCGGACGAUAACCCAGGAGAAGGAGGAUGUCGAAGAAGACAUGAGGAUCACCCAUGUGCGUCCUCU [Ancegege] (Eterna round: R96, puzzle: Exclusion NG 1) | – | – | – | 10.3 | 10.6 | 15.4
AGCUAAAUAGGAUAUGCCCGGGAUAACAUGAGGAUCACCCAUGUGACCGAUUCAUGUCCUGCAGAAGGAUUUGGGA [Mod of ViennaUCT 5 - Jieux - Exclusion 5] (Eterna round: R97, puzzle: Exclusion 5) | – | – | – | 17 | – | 13
